# US7094575B2 (priority 1999, dated 2006)
# “And” between values parts separate entries of the source, which are not always exact repeats. Equal entries are not always repeated. Where two headings read alike, the source gives them in different places. Where no end group is shown, it is not given here.
# T1: Daboiatoxin PLA2 (Daboia siamensis, UniProt Q7T2R1+Q7T3T5)
# T1 sequence (Q7T2R1 whole entry, looked up): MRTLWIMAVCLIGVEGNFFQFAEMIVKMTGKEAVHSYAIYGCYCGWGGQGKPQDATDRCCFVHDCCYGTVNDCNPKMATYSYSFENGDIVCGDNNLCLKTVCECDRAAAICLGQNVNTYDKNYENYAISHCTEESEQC
# T1 sequence (Q7T3T5 whole entry, looked up): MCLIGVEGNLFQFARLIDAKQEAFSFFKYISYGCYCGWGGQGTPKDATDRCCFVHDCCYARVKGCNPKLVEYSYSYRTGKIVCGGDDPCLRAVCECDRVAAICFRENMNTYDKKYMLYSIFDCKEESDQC
# How the values were obtained:
# [1] = molecular target: daboiatoxin, the major PLA2 toxin of Daboia russelli siamensis venom (Daboia siamensis, UniProt Q7T2R1+Q7T3T5); format: biochemical
# [2] = molecular target: Daboiatoxin PLA2 (Daboia siamensis, UniProt Q7T2R1+Q7T3T5); format: in vivo, mice; details: mouse, in vivo
# [3] = system: PLA2 activity of Daboia russelli siamensis venom; format: biochemical
# [4] = system: Daboia russelli siamensis venom; format: in vivo, mice; details: Table 6; for Paw oedema: 45 min, n = 3
# [5] = system: Daboia russelli russelli (India) venom; format: in vivo, mice
# [6] = system: Daboia russelli siamensis venom; format: in vivo, mice
# [7] = not given; remark: listed apart in the source
# [8] = system: Daboia russelli siamensis (Thailand) venom; format: in vivo, mice
# [9] = molecular target: T1, Daboiatoxin PLA2; format: in vivo, mice
# [10] = system: Daboia russelli pulchella (Sri Lanka) venom; format: in vivo, mice
molecule,measurement,setting,value
PGLPLSLQNG [P-0029],IC50,[1],40 µg
same,PLA2 inhibition (%),[1],90%
same,"Oedema (mg), inhibitor alone","mouse, in vivo",13 ± 2 mg
PLPGLPLSLQNGLYK [PP-0008],PLA2-inhibitory activity (in words),[1],insignificant
same,PLA2 inhibition (%),[1],18%
same,Anti-Inflammatory Activity,[2],Negative
GAFGIFTEDSTEK [PP-0005],PLA2-inhibitory activity (in words),[1],fails to inhibit PLA2 activity
same,PLA2 inhibition (%),[1],−13%
same,Anti-Inflammatory Activity,[2],Negative
LSLQNGLYK [PP-0006],IC50,[1],250 µg
same,PLA2 inhibition (%),[1],70%
PLPGLPLSLQNGLYCPGAFGIF [PP-0036],PLA2-inhibitory activity (in words),[1],devoid of PLA2-inhibitory activity
same,PLA2 inhibition (%),[1],−3.0%
same,Anti-Inflammatory Activity,[2],Negative
PLPGLPLSKP [P-0009],IC50,[1],125 µg
same,PLA2 inhibition (%),[1],80%
"PAF: 140-kDa hexameric glycoprotein of six 23-kDa subunits purified from Python reticulatus serum; SEQ ID NO: 6 (protein, listed as Python reticulatus) MKSLQTICLLFIFIARGTSDKCEICHGFGDDCDGYQEECPSPEDRCGKILIDIALAPVSFRATHKNCFSSSICKLGRVDIHVWDGVYIRGRTNCCDNDQCEDQPLPGLPLSLQNGLYCPGAFGIFTEDSTEHEVKCRGTETMCLDLVGYRQESYAGNITYNIKGCVSSCPLVTLSERGHEGRKNDLKKVECREALKPASSD",Inhibitory activity (IC50),[3],0.2 mg
same,% Inhibition (mean),[4]; venom 5 μg + 25 μg inhibitor,7.8%
same,Paw oedema,"[4]; venom 5 μg + 25 μg inhibitor subplantar, PAF is recombinant",107 ± 20 mg
same,% Inhibition (mean),[4]; venom 5 μg + 50 μg inhibitor,46.5%
same,Paw oedema,[4]; venom 5 μg + 50 μg inhibitor,62 ± 2.2 mg
same,% Inhibition (mean),[4]; venom 5 μg + 100 μg inhibitor,74.6%
same,Paw oedema,[4]; venom 5 μg + 100 μg inhibitor,29 ± 0.8 mg
same,"Protection against lethality, Survival/total",[5]; 24 hr,3/3
same,% neutralisation,"[5]; mouse, in vivo, ip",100%
same,"Protection against lethality, Survival/total",[6]; 24 hr,4/4
same,% neutralisation,"[6]; mouse, in vivo, ip",100%
same,"Survival/total, PAF alone",[7]; 24 hr,3/3
same,toxicity of native PAF,[7]; mice,non-toxic
same,"Protection against lethality, Survival/total",[8]; 24 hr,3/3
same,% neutralisation,"[8]; mouse, in vivo, ip",100%
same,"% Inhibition (mean) column, inhibitor alone","mouse, in vivo",n.s.
same,"Paw oedema (mg), inhibitor alone",n = 3,10 ± 5.2 mg
same,Paw oedema,"[9]; 45 min, n = 3",18 ± 6.0 mg and 13 ± 0.4 mg
same,% Inhibition (mean),"[9]; mouse, in vivo",89.4% and 92.1%
same,"Protection against lethality, Survival/total",[10]; 24 hr,3/3
same,% neutralisation,"[10]; mouse, in vivo, ip",100%
